Assays:
thrombin [1] = target: thrombin (UniProt P00734)
thrombin [2] = target: thrombin (UniProt P00734); remark: listed apart in the source
thrombin [3] = target: thrombin (UniProt P00734); remark: listed apart in the source
thrombin [4] = target: thrombin (UniProt P00734); remark: listed apart in the source
thrombin [5] = target: thrombin (UniProt P00734); remark: listed apart in the source
kallikrein 7 = kallikrein 7 (UniProt P49862 30-253); experiment: cell-based or functional assay
Chain of kallikrein 7 (P49862 30-253): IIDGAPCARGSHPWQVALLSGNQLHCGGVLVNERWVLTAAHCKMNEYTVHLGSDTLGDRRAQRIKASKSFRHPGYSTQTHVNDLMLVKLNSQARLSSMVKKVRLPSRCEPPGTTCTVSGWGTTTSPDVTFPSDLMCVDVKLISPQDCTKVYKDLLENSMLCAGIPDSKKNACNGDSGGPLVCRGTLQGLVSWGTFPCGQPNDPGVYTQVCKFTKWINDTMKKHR

| k obs of thrombin inhibition, 375 nM chloropin variant, 75 nM thrombin, with 0.8 nM linear plasmid DNA (thrombin [1]) [s⁻¹] | k obs of thrombin inhibition, 375 nM chloropin variant, 75 nM thrombin, without linear plasmid DNA (thrombin [1]) [s⁻¹] | k obs of thrombin inhibition, 1 uM chloropin variant, 0.1 uM thrombin, with 0.1 uM heparin (thrombin [1]) [s⁻¹] | k obs of thrombin inhibition, 1 uM chloropin variant, 0.1 uM thrombin, without heparin (thrombin [1]) [s⁻¹] | k obs of thrombin inhibition, 375 nM chloropin, 75 nM thrombin, with 0.8 nM linear plasmid DNA (thrombin [1]) [s⁻¹] | k obs of thrombin inhibition, 375 nM chloropin, 75 nM thrombin, with supercoiled plasmid DNA (thrombin [1]) [s⁻¹] | k obs of thrombin inhibition, 375 nM chloropin, 75 nM thrombin, without linear plasmid DNA (thrombin [1]) [s⁻¹] | k obs of thrombin inhibition, 375 nM chloropin, 75 nM thrombin, without supercoiled plasmid DNA (thrombin [1]) [s⁻¹] | k obs of thrombin inhibition, 1 uM chloropin, 0.1 uM thrombin, with 0.1 uM heparin (thrombin [1]) [s⁻¹] | k obs of thrombin inhibition, 1 uM chloropin, 0.1 uM thrombin, without heparin (thrombin [1]) [s⁻¹] | k 2, derived second-order inhibition rate constant (thrombin [2]) [M⁻¹ s⁻¹] | k app, apparent second-order rate constant of thrombin inhibition (residual protease activity) (thrombin [2]) [M⁻¹ s⁻¹] | stoichiometry of inhibition (SI), residual thrombin activity after 12 h with 0-2 uM chloropin (thrombin [2]) | fold increase of k obs of thrombin inhibition with low molecular weight heparin (series of concentrations, bell-shaped; 5.9-fold at 0.1 uM, maximum at 0.5 uM) (thrombin [3]) [fold] | fold increase of the rate of thrombin inhibition with linear DNA (series of concentrations; maximum around 2.4-4.8 nM) (thrombin [4]) [fold] | fold increase of the rate of thrombin inhibition with supercoiled plasmid DNA (0.05-25.6 nM, bell-shaped; 1.5-fold at 0.1 nM, maximum between 1.6 and 3.2 nM) (thrombin [4]) [fold] | second order rate constant of thrombin inhibition with DNA (thrombin [5]) [M⁻¹ s⁻¹] | stoichiometry of inhibition (SI), residual KLK7 activity after 12 h with 0-2 uM chloropin (kallikrein 7) | Molecule |
| --- | --- | --- | --- | --- | --- | --- | --- | --- | --- | --- | --- | --- | --- | --- | --- | --- | --- | --- |
| 0.0041 | 0.0035 | 0.0096 | 0.0083 |  |  |  |  |  |  |  |  |  |  |  |  |  |  | Chloropin K268D/K269D (natural protein) |
| 0.0035 | 0.0036 | 0.0107 | 0.0086 |  |  |  |  |  |  |  |  |  |  |  |  |  |  | Chloropin K126D/K127D (natural protein) |
| 0.0055 | 0.0038 | 0.0555 | 0.0095 |  |  |  |  |  |  |  |  |  |  |  |  |  |  | Chloropin K119D (natural protein) |
|  |  |  |  | 0.0142 | 0.0193 | 0.0035 | 0.0035 | 0.0667 | 0.0083 | 25000 | 14700 | 1.68 | 17.2 | 142 | 74 | 3.6e+06 | 1.55 | chloropin (natural protein, Chlorobium limicola, UniProt B3ECZ8 54-420, looked up) ELAVDLYRNLAVTGKNLFFSPSSIETALSMTMSGARNRTERQMADVMHVGPDAMERHHAGLASFEKQLESIQKKGKVTIASSNSIWPQKNYPLAPSWLAQLKRYYGTSVTPVDYIHETEKARIAINRRVEKDTKNRIRELLKPGILDPLTRLALVNAVYFKGDWEHPFNENNTVASPFYIRQGTTGKAPLMRQSASFGYGDHDGVQVLELPYAGKKLSMIVVLPKERFGLEALEKTLTPKQFALWTANLSERKIEALLPKFRTTSAFRLDETLRHMGMTDAFDRNLADFSGMVSNSDKLYIGAVVHKAFVDVGEKGTEAAAATAVVMQLRSAMPMPVPVFKADHPFLFAIRENSTGRILFMGRISDP |

Source: article PMC10090351, “DNA accelerates the protease inhibition of a bacterial serpin chloropin” (Frontiers in Molecular Biosciences, 2023)
